Data from publication doi:10.1101/2019.12.19.882373.

Key:
Experiment in all cases: FRET or BRET
[1] = biological target: CipA cohesin 2 module (c2A), G144C, labelled with Cy3B (C. thermocellum)
[2] = biological target: CipA cohesin 7 module (c7A) (C. thermocellum) (UniProt Q06851)
[3] = biological target: cohesin 1 from scaffoldin CipC (c1C) (C. cellulolyticum)
[4] = biological target: cohesin module 7 of scaffoldin CipC (c7C) (C. cellulolyticum)
[5] = biological target: CipA cohesin 1 module (c1A) (C. thermocellum) (UniProt Q06851)

Substance | fraction of complexes in binding mode B1 [1] | fraction of complexes in binding mode B1 [2] | fraction of complexes in binding mode B1 (cyclophilin-treated) [1] | fraction of complexes in binding mode B1 [3] | fraction of complexes in binding mode B1 [4] | fraction of complexes in binding mode B1 [5]
dockerin CelS (type-I dockerin module of cellulase S), D63C, labelled with Alexa Fluor 647 (domain or fragment) | 0.43 | 0.58 | – | – | – | –
dockerin celS single residue clasp mutant Y5A (celS_Y5A) (domain or fragment) | 0.42 | – | 0.2 | – | – | –
dockerin from cellulase A (CelA) (domain or fragment) | 0.37 | 0.48 | – | – | – | –
dockerin from the cellulase 5A of C. cellulolyticum (CcCel5A) (domain or fragment) | – | – | – | 0.26 | 0.45 | –
swapped version of dockerin celS (celS_Swap), helices H1 and H3 exchanged (domain or fragment) | 0.89 | 0.69 | – | – | – | 0.59
